Reference: publication PMC3967975 (Molecular Biology of the Cell, 2014)
Changes are numbered by the printed parent chain. Numbers in names are those of the source. Read-outs that look alike come from different tables or passages of the source.

B1: Ce-lamin tail domain (residues 388–566), His-tagged (domain or fragment, C. elegans, UniProt Q21443 388-566, looked up)
chain: NLTQEAPQNTSVHHVSFSSGGASAQRGVKRRRVVDVNGEDQDIDYLNRRSKLNKETVGPVGIDEVDEEGKWVRVANNSEEEQSIGGYKLVVKAGNKEASFQFSSRMKLAPHASATVWSADAGAVHHPPEVYVMKKQQWPIGDNPSARLEDSEGDTVSSITVEFSESSDPSDPADRCSIM
B2: MBP::BAF-1 (wild-type C. elegans barrier to autointegration factor 1 fused to maltose-binding protein) (natural protein, UniProt Q03565 1-89, looked up)
chain: MSTSVKHREFVGEPMGDKEVTCIAGIGPTYGTKLTDAGFDKAYVLFGQYLLLKKDEDLFIEWLKETAGVTANHAKTAFNCLNEWADQFM
B3: MBP::BAF-1 S4E (natural protein, C. elegans, UniProt Q03565 1-89, looked up)
chain: B2 chain with S4E
B4: MBP::BAF-1 K6A (natural protein, C. elegans, UniProt Q03565 1-89, looked up)
chain: B2 chain with K6A
B5: MBP::BAF-1 S4A (natural protein, C. elegans, UniProt Q03565 1-89, looked up)
chain: B2 chain with S4A
B6: MBP::BAF-1 F46E (natural protein, C. elegans, UniProt Q03565 1-89, looked up)
chain: B2 chain with F46E
B7: His::emerin 1–125 (Ce-emerin residues 1–125, nucleoplasmic domain only) (domain or fragment, C. elegans, UniProt O01971 1-125, looked up)
chain: MDVSQLTDAELRDSLKSHGVSVGPIVATTRKLYEKKLIKLSDGSINNQSNLNDSQFNEDSLIISSSPKKSPPQRVFQNVSAATAAATTSPESDSDDCEESMRYLTEEEMAADRASARQAQSNKGG
B8: His::lamin R55H (full-length Ce-lamin bearing the R55H mutation) (natural protein, C. elegans, UniProt Q21443 1-566, looked up)
chain: MSSRKGTRSSRIVTLERSANSSLSNNGGGDDSFGSTLLETSRLQEKDHLTSLNSHLATYIDKVRQLEQENNRLQVQIRDIEVVEKKEKSNLADRFEAEKARLRRALDSAQDELAKYRIEYDAAKVEVKKLKPQVEKLERELAGAEEQALHAQSIADQSQAKQKTLQARNDKLVVENDDLKKQNITLRDTVEGLKKAVEDETLLRTAANNKIKALEEDLAFALQQHKGELEEVRHKRQVDMTTYAKQINDEYQSKLQDQIEEMRAQFKNNLHQNKTAFEDAYKNKLNAARERQEEAVSEAIHLRARVRDLETSSSGNASLIERLRSELDTLKRSFQEKLDDKDARIAELNQEIERMMSEFHDLLDVKIQLDAELKTYQALLEGEEERLNLTQEAPQNTSVHHVSFSSGGASAQRGVKRRRVVDVNGEDQDIDYLNRRSKLNKETVGPVGIDEVDEEGKWVRVANNSEEEQSIGGYKLVVKAGNKEASFQFSSRMKLAPHASATVWSADAGAVHHPPEVYVMKKQQWPIGDNPSARLEDSEGDTVSSITVEFSESSDPSDPADRCSIM

Columns and labels:
Assay in all cases: SPR
[1] = target: B8
[2] = target: B7
SPR [3] = target: the molecule itself
[4] = target: B8; remark: listed apart in the source
SPR [5] = target: the molecule itself; remark: listed apart in the source

Binder | Kd [1] | Kd [2] | Kd (SPR [3]) | Kd [4] | Kd (SPR [5])
B1 | 0.56 nM | – | – | – | –
B2 | 84 nM | 57 nM | – | – | –
B3 | 32100 nM | ~57 nM | – | – | –
B4 | 198 nM | 31 nM | – | – | –
B5 | 281 nM | 20 nM | – | – | –
B6 | 623 nM | 5.6 nM | – | – | –
B7 | – | – | 14 nM | 4 to 5 nM | –
B8 | – | – | – | – | 3.7 nM
